In the experiment the target is T Cell Receptor Gamma Variable 9 (TRGV9) on human γδ T cells (human) (UniProt Q99603). The experiment in a line: binding to γδ-enriched T cells, 1 h at 37 °C (panel γδ T-cell binding).

B1: VG9B2, chimera human IgG1 mAb (silent Fc) of mouse anti-human TCR Vγ9 clone B3 (antibody, V domains shown)
VH: QGQMQQSGAELVKPGASVKLSCKTSGFTFSSNYISWLKQKPGQSLEWIAWIHGGTGGIGYNQKFTGKAQLTVDTSSTTAYMQFSSLTTEDSAIYYCARRGYGAWFAYWGQGTLVTVSA
VL: DIQMTQSPASLSASVGETVTITCRASENIHNYLAWYQQKQGKSPQLLVYNAKTLADGVPSRFSGSGSGTQYSLKINSLQPEDFGNYYCQHFWSYPLTFGAGTKLELK
Regarding B1, the EC50 stood at 0.56 nM.

A word on the EC50: it is the concentration giving half of the maximal effect. A low value points to an effect from little substance.

The values above are taken from patent US20210032338A1.
